# Experimental data reported in paper PMC3665746.
# Target: palm-Mover-flag (not stated | rat)
# Experiment: plasma membrane recruitment assay in cells (immunofluorescence, line scans); Vero cells co-transfected with palm-Mover-flag and a myc- or GFP-tagged Mover construct; fixed after 24 h, stained against the tags; a cell is positive for recruitment when the fluorescence profiles co-peak in the cell periphery
row,Substance,percent of cells showing recruitment (percent of cells)
1,Mover-GFP (natural protein),61
2,Mover-myc (natural protein),94
3,GFP-Mover (natural protein),94
4,GFP-Mover 34–266 (domain or fragment),71
5,GFP-Mover 52–266 (domain or fragment),86
